How the values were obtained:
Test in all cases: pulldown
[1] = biological target: SNRPB2 (Meleagris gallopavo) (UniProt G1N364); details: 20 nM protein, 1.5 uM RNA pool; 20 mM HEPES pH 7.8, 70 mM KCl, 10 mM NaCl, 10% glycerol, 2 mM DTT, 0.1 ug/uL BSA; 30 min, 4 C
[2] = biological target: T1, PK11774.1 (Cannabis sativa) (UniProt A0A7J6FQM5); details: 20 nM protein, 1.5 uM RNA pool; 20 mM HEPES pH 7.8, 70 mM KCl, 10 mM NaCl, 10% glycerol, 2 mM DTT, 0.1 ug/uL BSA; 30 min, 4 C
T1 sequence: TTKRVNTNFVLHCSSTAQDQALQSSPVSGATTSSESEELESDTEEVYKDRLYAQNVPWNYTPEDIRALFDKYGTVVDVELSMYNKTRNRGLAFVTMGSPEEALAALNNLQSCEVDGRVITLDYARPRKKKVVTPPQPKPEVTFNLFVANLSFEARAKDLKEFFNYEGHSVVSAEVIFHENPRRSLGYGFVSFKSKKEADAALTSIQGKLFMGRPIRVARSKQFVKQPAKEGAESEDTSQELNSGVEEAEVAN

[3] = biological target: T2, nop12 (Schizosaccharomyces pombe) (UniProt O13741); details: 20 nM protein, 1.5 uM RNA pool; 20 mM HEPES pH 7.8, 70 mM KCl, 10 mM NaCl, 10% glycerol, 2 mM DTT, 0.1 ug/uL BSA; 30 min, 4 C
T2 sequence: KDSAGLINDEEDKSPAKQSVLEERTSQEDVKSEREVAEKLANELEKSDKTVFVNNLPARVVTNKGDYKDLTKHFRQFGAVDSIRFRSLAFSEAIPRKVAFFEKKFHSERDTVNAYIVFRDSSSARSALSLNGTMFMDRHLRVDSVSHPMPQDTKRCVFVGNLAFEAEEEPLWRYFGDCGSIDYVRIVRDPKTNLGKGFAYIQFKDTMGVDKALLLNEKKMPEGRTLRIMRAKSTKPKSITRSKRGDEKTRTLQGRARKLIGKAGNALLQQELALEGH

[4] = biological target: T3, CBG05471 (Caenorhabditis briggsae) (UniProt A8WZY6); details: 20 nM protein, 1.5 uM RNA pool; 20 mM HEPES pH 7.8, 70 mM KCl, 10 mM NaCl, 10% glycerol, 2 mM DTT, 0.1 ug/uL BSA; 30 min, 4 C
T3 sequence: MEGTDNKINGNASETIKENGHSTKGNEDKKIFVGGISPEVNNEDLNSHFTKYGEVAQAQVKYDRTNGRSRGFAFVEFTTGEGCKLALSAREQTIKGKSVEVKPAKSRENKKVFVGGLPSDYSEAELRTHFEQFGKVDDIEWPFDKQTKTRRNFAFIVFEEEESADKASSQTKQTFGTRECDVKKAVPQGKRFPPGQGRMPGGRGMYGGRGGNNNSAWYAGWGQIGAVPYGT

[5] = biological target: T4, Y57G11C.36 (Caenorhabditis elegans) (UniProt Q8I4C4); details: 20 nM protein, 1.5 uM RNA pool; 20 mM HEPES pH 7.8, 70 mM KCl, 10 mM NaCl, 10% glycerol, 2 mM DTT, 0.1 ug/uL BSA; 30 min, 4 C
T4 sequence: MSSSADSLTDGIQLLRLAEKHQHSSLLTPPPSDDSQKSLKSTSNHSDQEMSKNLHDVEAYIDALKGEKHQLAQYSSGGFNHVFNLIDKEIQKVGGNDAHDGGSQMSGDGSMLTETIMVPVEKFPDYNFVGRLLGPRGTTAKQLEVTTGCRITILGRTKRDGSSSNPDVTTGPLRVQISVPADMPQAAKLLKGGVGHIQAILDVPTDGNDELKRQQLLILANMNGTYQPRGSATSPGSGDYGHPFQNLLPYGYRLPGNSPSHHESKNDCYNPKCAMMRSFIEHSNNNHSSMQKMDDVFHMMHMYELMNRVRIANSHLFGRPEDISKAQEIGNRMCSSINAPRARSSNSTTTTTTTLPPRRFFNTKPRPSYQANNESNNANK

[6] = biological target: T5, nrd1 (Schizosaccharomyces pombe) (UniProt Q09702); details: 20 nM protein, 1.5 uM RNA pool; 20 mM HEPES pH 7.8, 70 mM KCl, 10 mM NaCl, 10% glycerol, 2 mM DTT, 0.1 ug/uL BSA; 30 min, 4 C
T5 sequence: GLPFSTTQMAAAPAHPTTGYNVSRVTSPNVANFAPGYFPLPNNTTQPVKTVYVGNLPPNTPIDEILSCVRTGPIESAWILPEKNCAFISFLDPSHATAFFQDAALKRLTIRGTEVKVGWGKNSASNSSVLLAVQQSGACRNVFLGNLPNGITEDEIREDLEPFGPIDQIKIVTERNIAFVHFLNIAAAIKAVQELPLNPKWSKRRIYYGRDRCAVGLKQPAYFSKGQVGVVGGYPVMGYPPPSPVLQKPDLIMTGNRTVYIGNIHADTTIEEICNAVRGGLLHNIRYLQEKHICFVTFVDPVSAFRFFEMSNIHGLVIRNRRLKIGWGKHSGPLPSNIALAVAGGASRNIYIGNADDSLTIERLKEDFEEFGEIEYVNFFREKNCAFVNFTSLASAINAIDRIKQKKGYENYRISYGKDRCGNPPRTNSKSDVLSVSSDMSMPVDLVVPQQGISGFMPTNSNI

HNRNPC (Homo sapiens) = HNRNPC (Homo sapiens) (UniProt P07910); details: 20 nM protein, 1.5 uM RNA pool; 20 mM HEPES pH 7.8, 70 mM KCl, 10 mM NaCl, 10% glycerol, 2 mM DTT, 0.1 ug/uL BSA; 30 min, 4 C (protocol of this paper; not …); cited from earlier work
Sequence of HNRNPC (Homo sapiens) (P07910 1-131): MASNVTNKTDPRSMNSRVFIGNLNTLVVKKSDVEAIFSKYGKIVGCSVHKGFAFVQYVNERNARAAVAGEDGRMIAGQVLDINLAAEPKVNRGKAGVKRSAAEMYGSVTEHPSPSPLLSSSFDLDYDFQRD

[7] = biological target: T6, CPEB1 E201G;P348T;C438Y (Homo sapiens) (UniProt Q9BZB8); details: 20 nM protein, 1.5 uM RNA pool; 20 mM HEPES pH 7.8, 70 mM KCl, 10 mM NaCl, 10% glycerol, 2 mM DTT, 0.1 ug/uL BSA; 30 min, 4 C
T6 sequence: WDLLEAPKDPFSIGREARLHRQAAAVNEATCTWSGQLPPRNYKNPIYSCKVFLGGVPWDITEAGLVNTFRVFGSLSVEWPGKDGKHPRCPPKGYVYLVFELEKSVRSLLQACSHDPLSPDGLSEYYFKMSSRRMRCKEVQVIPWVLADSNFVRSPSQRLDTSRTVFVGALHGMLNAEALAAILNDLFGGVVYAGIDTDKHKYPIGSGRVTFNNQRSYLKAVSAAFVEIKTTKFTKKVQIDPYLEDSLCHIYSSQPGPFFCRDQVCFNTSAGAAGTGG

Sequence of SNRPB2 (Meleagris gallopavo) (G1N364 entry or part of it): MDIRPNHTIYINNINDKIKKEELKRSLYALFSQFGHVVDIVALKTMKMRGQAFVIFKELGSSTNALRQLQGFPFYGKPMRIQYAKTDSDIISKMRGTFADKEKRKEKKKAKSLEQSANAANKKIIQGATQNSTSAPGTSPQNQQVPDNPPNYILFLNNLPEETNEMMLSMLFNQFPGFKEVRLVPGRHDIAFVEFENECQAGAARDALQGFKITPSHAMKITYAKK

## UUGCAC [RNAcompete motif RNCMPT00425]
[1]
  binding signal (z-score (mean of top ten 7-mers)): 7.95

## UGGAGNG [RNAcompete motif RNCMPT00403]
[2]
  binding signal (z-score (mean of top ten 7-mers)): 10.9

## GAACG [RNAcompete motif RNCMPT00412]
[3]
  binding signal (z-score (mean of top ten 7-mers)): 25.9

## AGUAA [RNAcompete motif RNCMPT00422]
[4]
  binding signal (z-score (mean of top ten 7-mers)): 9.16

## CUACUAG [RNAcompete motif RNCMPT00423]
[5]
  binding signal (z-score (mean of top ten 7-mers)): 15.3

## UUUUUUC [RNAcompete motif RNCMPT00414]
[6]
  binding signal (z-score (mean of top ten 7-mers)): 11.9

## UUUUUU [RNAcompete motif RNCMPT00025]
HNRNPC (Homo sapiens)
  binding signal (z-score (mean of top ten 7-mers)): 15.8

## UUUUUUA [RNAcompete motif RNCMPT00434]
[7]
  binding signal (z-score (mean of top ten 7-mers)): 13.2
